From the DeepSol protein solubility set come the findings set out here.

This series in a line: soluble on expression in E. coli; label from the status in PepcDB or PDB records.
Regarding “MSLRTYENVVILTDLTAGTTYYYKIVSTNSTVDHFLSPRVPGDETPFSINAVIDLGVYGEDGYTIKGDKSKKDTIPTINPALNHTTIGRLASTVDDYEFVIHPGDFAYADDWFLSLDNLLDGENAYQAILENFYEQLAPISGRKPYMASPGNHEAACQEIPFTTGLCPDGQKNFTDFMHRFGRTMPSSFTSVSTNDSAKVFANQARELAQPPFWYSFEYGMAHIVMINTETDFEDAPSGKGGSAHLNGGPFGAKNQQLEFLEADLASVDRDVTPWVIVAGHRPWYTAGSACTPCQEAFEDLLYTYGVDLGVFGHVHNAQRFLPVYNSVADPNGMQDPKAPMYIVAGGAGNIEGLSSITKQLDFTEFANDEDYTYSTIRFLDRNHLQVDFINSVSGEVLDTSTLYKSHEARFVREGHHHHHH”, the “soluble on expression in E. coli” value is “not soluble”.
Under “MSLSGETLYQQLVNEWMELIRNGTVRPGERLPSVRKACAMHKVSPSTILQTYRMLEDRGLIEARPQSGFYVKSAASLPLPRMRRQSAAHHTGEVVDQIEAVMGVQSQADFIDLALASPRGSDFYPTTRFKHIMGRLLRQHPELTTDYPFPPGSERLRRQIAQRAVNWGCVLAADELVISNGCTEALQLALRAVCKPGDTVGVESPTYFALLPMLKDLGLAVIEIPTHPTSGLALDALELLLSEKRLNAVVAMPTVHNPLGSTMPPEAKRRLAQLVNDYQVPLIEDVPHAELFYGASTPDAVKAYDRDGWVLLCSSYSKTLAPGFRIGWIAPGRFLSEVRRLKFSSSLGQPALLEETLAEYLESGGYDHHLRLLRRHFISQMEKLRGAVAQHFPDGTRATLPSGGCLLWVELPSHADTMQLFRAALAERITVVPGAMYSAKGRYRNCLRLSCCYPWNEAYQRALIRVGELAGELAEGHEGHHHHHH” stands “soluble”; under “MSAAPLVGYSSSGSEDESEDGMRTRPGDGSHRRGQSPLPRQRFPVPDSVLNMFPGTEEGPEDDSTKHGGRVRTFPHERGNWATHVYVPYEAKEEFLDLLDVLLPHAQTYVPRLVRMKVFHLSLSQSVVLRHHWILPFVQALKARMTSFHRFFFTANQVKIYTNQEKTRTFIGLEVTSGHAQFLDLVSEVDRVMEEFNLTTFYQDPSFHLSLAWCVGDARLQLEGQCLQELQAIVDGFEDAEVLLRVHTEQVRCKSGNKFFSMPLK”, “soluble”.
Under “MTANREAIDMARVAAGAAAAKLADDVVVIDVSGQLVITDCFVIASGSNERQVNAIVDEVEEKMRQAGYRPARREGAREGRWTLLDYRDIVVHIQHQDDRNFYALDRLWGDCPVVPVDLSANSAGAQ” stands “not soluble”.
Under “MSYTATNQPVRAPPLNSDYELIDGDPYFTRVVSYFRFSDYVNWAVITASFPLGMKLWEKIVPSQGKGLKPSVVNPVTLRVSTLLGFFGGFCLNYVKSSQRFLGWRENSREVKLDRFEIKQKLSQGVLPYNEHLSKLDDRNKDISNRNSQYSHALLFVIPWFNTTYHPYHQVDLKKYYINREGEENWGFELKPLDEIYAKYGKKF” stands “not soluble”; under “MANCQIAILYQRFQRVVFGISQLLCFSALISELTNQKEVAAWTYHYSTKAYSWNISRKYCQNRYTDLVAIQNKNEIDYLNKVLPYYSSYYWIGIRKNNKTWTWVGTKKALTNEAENWADNEPNNKRNNEDCVEIYIKSPSAPGKWNDEHCLKKKHALCYTASCQDMSCSKQGECLETIGNYTCSCYPGFYGPECEYVRECGELELPQHVLMNCSHPLGNFSFNSQCSFHCTDGYQVNGPSKLECLASGIWTNKPPQCLAAQCPPLKIPERGNMTCLHSAKAFQHQSSCSFSCEEGFALVGPEVVQCTASGVWTAPAPVCKAVQCQHLEAPNEGTMDCVHPLTAFAYGSSCKFECQPGYRVRGLDMLRCIDSGHWSAPLPTCEAISCEPLESPVHGSMDCSPSLRAFQYDTNCSFRCAEGFMLRGADIVRCDNLGQWTAPAPVCQALQCQDLPVPNEARVNCSHPFGAFRYQSVCSFTCNEGLLLVGASVLQCLATGNWNSVPPECQAIPCTPLLSPQNGTMTCVQPLGSSSYKSTCQFICDEGYSLSGPERLDCTRSGRWTDSPPMCEAIKCPELFAPEQGSLDCSDTRGEFNVGSTCHFSCNNGFKLEGPNNVECTTSGRWSATPPTCKGIASLPTPGVQCPALTTPGQGTMYCRHHPGTFGFNTTCYFGCNAGFTLIGDSTLSCRPSGQWTAVTPACRAVKCSELHVNKPIAMNCSNLWGNFSYGSICSFHCLEGQLLNGSAQTACQENGHWSTTVPTCQDDGKCPLNPHSHLGTYGVFTNAAFDPSP”, “soluble”; under “GTPEQLQAWRWEREIDERNRPLSDEELDAMFPEGYKVLPPPAGYVPI”, “soluble”.
For “MSLTDRIRRLRQESFDTQPSLSIERALIETEFYKENEGKYPIPILRALNFLEICKRKTIYIGEDELIVGERGPRPKAVSTFPELTCHSVEDLHVLNTRELQRYTISQEDIDTYEREVIPYWKGRTQRERIFNHVPKEWKEAYEVGMFTEFMEQRAPGHTSLDGKVYQHGMLDLKERIAHELKNLDFMNDPEATDKQEELTAMSISCDAAIIFAERHAELAEKMAGQETDPKRKEELKKIAEICRWVPAHAPRTYWEAIQMYWFVHLGTITELNGWDAMNPGHFDQHLAPFYEKDLEEGILTRAEAKELMSCFFIKVNNQTAPPKVGITAKESGTYNDFTNLNIGGIKRDGSNGVSEVSYIMLETVDDLHLLQPGSALHISVCTPERFLREGCKVIRKGYGYPSVFNPDTYVMELMRQGKTPEDAREGGCSGCIEVGAFGKEAYILTGYLNVPKILEVTLHNGTDPVSGKKVGLVTGDPCTFRSYEALYDAFLKQIHYFVDMKVRVSNYIDRMFAKYAPATFLSLFIDDCIAKGKDYYNCGPRYNTSYIQCTGLGTITDSLSVLKKHVFEERKFNMEQIIHATDTNFEGQEAMRQFILNRTPFFGNDDEYADRIAIQIFNDLYDAIEGKPNTKGECFHLNMLSTTCHVYFGKMMNATPNGREGHHHHHH”, the “soluble on expression in E. coli” value is “soluble”.
Under “MSTIELNKRQEHILQIVKENGPITGEHIAEKLNLTRATLRPDLAILTMSGFLEARPRVGYFYTGKTGTQLLADKLKKLQVKDFQSIPVVIHENVSVYDAICTMFLEDVGTLFVVDRDAVLVGVLSRKDLLRASIGQQELTSVPVHIIMTRMPNITVCRREDYVMDIAKHLIEKQIDALPVIKDTDKGFEVIGRVTKTNMTKILVSLSENEILAAAAAALEHHHHHH” stands “soluble”; under “MGSSHHHHHHSSGLVPRGSHMLEDPMGTLIRATTLSRLSFIDVVNDNGFYQFEKPKEGRKYVATLDCSEGRGQDYHALQIIDITEFPYKQVAVYHSNTTSHFILPDIVFKYLMMYNECPVYIELNSTGVSIAKSLAMDLEYDNIICDSFIDLGMKQSKRSKAMGCSALKDLIEKDKLIINHKGTIQELRTFSEKGVSWAAEEGFHDDLVMSLVIFGWLTTQEKFAEYAGKDE”, “soluble”; under “MNQPFLSVVIATFNVAEVLRECLHSLASQTFRDFEVVIQDGASTDGTLAVAQEAAGRLPRLSLASVADSGIYDAWNRALPRVTGDWVLFLGSDDTLAGPDVLAQCARRLADLPPQVLYACGDALEVYPDGSSRAVTCTAEGATRRMADHIPFCHSSLWHRACLFEARHFDATLRIAADYDLICRTWPHDGVGHTLGITVTHMGVGGVSSSPAHRLRTQWELVRVAARHGHGAFSRRRLVPLCKAVGLWVLCRLAGRRASVMLDRLRVMRGLPPCWTTADPARVGGRDSARGDALEHHHHHH”, “not soluble”.
Under “MGSDKIHHHHHHMRISYGVENLRSLTRTPEIELRPITILIGRNSAGKSTYLRSFALMRQSLEVKSSAPILWYGDYVDFGDFDAAVSNGDKDSDITFNFRVEDLDTRDVEDEIYYYNEYAYRSSRRKISYQAVSLSISLGEQLRRTVRRRIALEIPEDRISAVASFEKDGRECSDFQINGQRLSDLIPNVAVYFRASDIFDRPVLVRQVRKDGKSLRRVVGAASEIGSAISQRLRQQVDKRISEENLAIEARRILNHPRLDPTSLQQLRLRAGNRSFRKLYDRWLKDEASTTLAEIDHLCALNHALITVGRVSSVLKGFFRNTTYLGPARARSERYYRSQELEVSEISPDGQNLPMFLASLSTTEQGRFSDWVEEAFGFGVLVERKEGHVSIKLRQRTISVNVADTGYGVSQILPVLAQIWWATQIPRNYTRQMRHGLRPITMEQPELHLHPAHQAKLADVFQSAIERSNASGPEAVLLIETHSEALINRLGELIEYGKIAANDVQVVIFSARGEGEELNTEISTSTFDDNGALRDWPYGFFNY” stands “not soluble”.
In the case of “MASLPILTVLEQSQVSPPPDTLGDKSLQLTFFDFFWLRSPPINNLFFYELPITRSQFTETVVPNIKHSLSITLKHFYPFVGKLVVYPAPTKKPEICYVEGDSVAVTFAECNLDLNELTGNHPRNCDKFYDLVPILGESTRLSDCIKIPLFSVQVTLFPNQGIAIGITNHHCLGDASTRFCFLKAWTSIARSGNNDESFLANGTRPLYDRIIKYPMLDEAYLKRAKVESFNEDYVTQSLAGPSDKLRATFILTRAVINQLKDRVLAQLPTLEYVSSFTVACAYIWSCIAKSRNDKLQLFGFPIDRRARMKPPIPTAYFGNCVGGCAAIAKTNLLIGKEGFITAAKLIGENLHKTLTDYKDGVLKDDMESFNDLVSEGMPTTMTWVSGTPKLRFYDMDFGWGKPKKLETVSIDHNGAISINSCKESNEDLEIGVCISATQMEDFVHIFDDGLKAYL”, the “soluble on expression in E. coli” value was “soluble”.
Under “PITNGHLDLIERAAQMFDEVIIAVAASPSKNTLFTLEERVEFARQVTSHLDNVSAKGFSGLLVDFAKAEKANVLIRGLRTTVDFEYEFGLTNMYRRLMPGLESVFLTPAEEHAFISSTLVREVAIHGGNVDEFVPAIVANALHQKKKI” stands “not soluble”.
For the sequence “MAHHHHHHMAKLSKQQKKQMYIEKLSSLIQQYSKILIVHVDNVGSNQMASVRKSLRGKATILMGKNTRIRTALKKNLQAVPQIEKLLPLVKLNMGFVFCKDDLSEIRNIILDNKSPAPARLGVIAPIDVFIPPGPTGMDPSHTSFFQSLGISTKIVKGQIEIQEHVHLIKQGEKVTASSATLLQKFNMKPFSYGVDVRTVYDDGVIYDAKVLDITDEDILEKFSKGVSNVAALSRATGVITEASYPHVFVEAFKNIVALIIDSDYTFPLMENIKKMVENPEAFAAVAAPASAAKADEPKKEEAKKVEEEEEEEEDGFMGFGMFD”, the “soluble on expression in E. coli” value is listed as “not soluble”.
For “MSTTIRFLRIVTSRAMSSSWSCNKCTFLNSASQKLNCMICLAPVSLPSLSPPPPSLSISANDEAKWACKACTFLNTYKNSICDVCGTRSPTSSLLGFQDLTDSGLESNDADSSVGSVFFPLRRCIKRKAMDDDVVEVDGASVVCSESQGVMKKNKEIETKGVASDSGTPLTCLKILSYNVWFREDLELNLRMRAIGHLIQLHSPHLICFQEVTPEIYDIFRKSNWWKAYSCSVSVDVAVSRGYYCMLLSKLGVKSFSSKSFGNSIMGRELSIAEVEVPGRKPLVFATSHLESPCPGPPKWDQMFSRERVEQAKEAIEILRPNANVIFGGDMNWCDKLDGKFPLPDKWVDVWEVLKPGDLGFTYDTKANPMLSGNRALQKRLDRILCRLDDYKLGGIEMVGKEAIPGLSYVKEKKVRGDIKKLELPVLPSDHFGLLVTLSPK”, the “soluble on expression in E. coli” value was “soluble”.
Under “MGSDKIHHHHHHMTDPDIGDSQDHANIISILQDLGLTENESRVYILLLEYGSMAAQDILRYLPLRQPQLYDITSSLERKGFINVLLGRPKKYEAIDPEAVVEAREQILSRNRRYFLTWANRAMETRRETTALINAKNIRSVINNSIDLINETEKTLEIETTQELFAYIREPILRKIREGCRVEILFFGTDVDLEKVQNQFTDLDVDVRYVSPGQFFTVISDEKNSVFMPRSVAMNTDIERYGYVIRDKDMSWFITHNFFVGWYRGNRIKDHSVVAPYTYHSQRILISDLKRIFDQKGRVHGVLEGIVRSTGDRFTSEGEISEINSDTEIINFVFKTDRGEYTVGGYDSQIEDIVMKSFTVASFG” stands “not soluble”.
